Results from patent US10064926B2, “Peptides and combination of peptides for use in immunotherapy against hepatocellular carcinoma (HCC) and other cancers” (Immatics biotechnologies GmbH, priority 2014, dated 2018).

Target: HLA-A*02 (Homo sapiens, UniProt P04439, D140Y/D185E/D98H/E176V/E277Q/G131W/G231S/I119V/I121R/I166T/I218V/N151K/N90K/P208A/P217A/Q86G/Q94H/R138H/R169H)
Test: UV-ligand exchange / peptide binding to MHC class I (beta2m ELISA)
Conditions: Table 10B; peptide exchange yield; HLA-A*02 peptides
Procedure, shortened: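 Peptide-MHC complexes generated by UV-mediated exchange of a photocleavable ligand for the test peptide. Exchange yield measured by streptavidin-capture ELISA detecting β2m of stabilized complexes (HRP anti-β2m, TMB, 450 nm). Samples diluted 100-fold, quantified against refolded HLA-A*0201 monomer standards (15-500 ng/ml).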

Row | Substance | Peptide exchange (MHC class I binding score)
1 | 241 (FVLPLLGLHEA; listed as Homo sapiens) [compound 241] | “++” (≥20% = ++)
2 | 242 (GLFAPVHKV; listed as Homo sapiens) [compound 242] | “+++” (≥50 = +++)
3 | 243 (GLLDNPELRV; listed as Homo sapiens) [compound 243] | “+++” (≥50 = +++)
4 | 244 (KIAELLENV; listed as Homo sapiens) [compound 244] | “++++” (≥75% = ++++)
5 | 245 (KLGAVFNQV; listed as Homo sapiens) [compound 245] | “++++” (≥75% = ++++)
6 | 246 (KLISSYYNV; listed as Homo sapiens) [compound 246] | “+++” (≥50 = +++)
7 | 247 (KLLDTMVDTFL; listed as Homo sapiens) [compound 247] | “++++” (≥75% = ++++)
8 | 248 (KLNDLIQRL; listed as Homo sapiens) [compound 248] | “+++” (≥50 = +++)
9 | 249 (LLLGERVAL; listed as Homo sapiens) [compound 249] | “++++” (≥75% = ++++)
10 | 250 (NLAEVVERV; listed as Homo sapiens) [compound 250] | “++++” (≥75% = ++++)
11 | 251 (RLFADILNDV; listed as Homo sapiens) [compound 251] | “++++” (≥75% = ++++)
12 | 252 (RTIEYLEEV; listed as Homo sapiens) [compound 252] | “+++” (≥50 = +++)
13 | 253 (RVPPPPQSV; listed as Homo sapiens) [compound 253] | “++” (≥20% = ++)
14 | 254 (RVQEAIAEV; listed as Homo sapiens) [compound 254] | “+++” (≥50 = +++)
15 | 255 (SLFGQDVKAV; listed as Homo sapiens) [compound 255] | “+++” (≥50 = +++)
16 | 256 (SLFQGVEFHYV; listed as Homo sapiens) [compound 256] | “+++” (≥50 = +++)
17 | 257 (SLLEKAGPEL; listed as Homo sapiens) [compound 257] | “+++” (≥50 = +++)
18 | 258 (SLMGPVVHEV; listed as Homo sapiens) [compound 258] | “+++” (≥50 = +++)
19 | 259 (TLITDGMRSV; listed as Homo sapiens) [compound 259] | “++” (≥20% = ++)
20 | 260 (TLMDMRLSQV; listed as Homo sapiens) [compound 260] | “+++” (≥50 = +++)
21 | 261 (VLFQEALWHV; listed as Homo sapiens) [compound 261] | “+++” (≥50 = +++)
22 | 262 (VLPNFLPYNV; listed as Homo sapiens) [compound 262] | “+++” (≥50 = +++)
23 | 263 (VLYPSLKEI; listed as Homo sapiens) [compound 263] | “+++” (≥50 = +++)
24 | 264 (VMQDPEFLQSV; listed as Homo sapiens) [compound 264] | “++++” (≥75% = ++++)
25 | 265 (WLIEDGKVVTV; listed as Homo sapiens) [compound 265] | “++++” (≥75% = ++++)
26 | 266 (SLLESNKDLLL; listed as Homo sapiens) [compound 266] | “+++” (≥50 = +++)

Now from value to substance:

Row | Peptide exchange (MHC class I binding score) | Substance
27 | “+++” (≥50 = +++) | 267 (ALNENINQV; listed as Homo sapiens) [compound 267]
28 | “++++” (≥75% = ++++) | 268 (KLYQEVEIASV; listed as Homo sapiens) [compound 268]
29 | “+++” (≥50 = +++) | 269 (YLMEGSYNKV; listed as Homo sapiens) [compound 269]
30 | “+++” (≥50 = +++) | 270 (SVLDQKILL; listed as Homo sapiens) [compound 270]
31 | “++++” (≥75% = ++++) | 271 (LLLDKLILL; listed as Homo sapiens) [compound 271]
32 | “+++” (≥50 = +++) | 272 (QQLDSKFLEQV; listed as Homo sapiens) [compound 272]
33 | “+++” (≥50 = +++) | 273 (AILETAPKEV; listed as Homo sapiens) [compound 273]
34 | “++++” (≥75% = ++++) | 274 (ALAEALKEV; listed as Homo sapiens) [compound 274]
35 | “+++” (≥50 = +++) | 275 (ALIEGAGILL; listed as Homo sapiens) [compound 275]
36 | “++++” (≥75% = ++++) | 276 (ALLEADVNIKL; listed as Homo sapiens) [compound 276]
37 | “+++” (≥50 = +++) | 277 (ALLEENSTPQL; listed as Homo sapiens) [compound 277]
38 | “++++” (≥75% = ++++) | 278 (ALTSVVVTL; listed as Homo sapiens) [compound 278]
39 | “+++” (≥50 = +++) | 280 (ATLNIIHSV; listed as Homo sapiens) [compound 280]
40 | “+++” (≥50 = +++) | 281 (GLLAGDRLVEV; listed as Homo sapiens) [compound 281]
41 | “+++” (≥50 = +++) | 282 (GQFPSYLETV; listed as Homo sapiens) [compound 282]
42 | “+++” (≥50 = +++) | 283 (ILSGIGVSQV; listed as Homo sapiens) [compound 283]
43 | “+++” (≥50 = +++) | 284 (KLDAFVEGV; listed as Homo sapiens) [compound 284]

Row | Peptide exchange (MHC class I binding score) | Substance
44 | “+++” (≥50 = +++) | 285 (KLLDLSDSTSV; listed as Homo sapiens) [compound 285]
45 | “++++” (≥75% = ++++) | 286 (KVLDKVFRA; listed as Homo sapiens) [compound 286]
46 | “++++” (≥75% = ++++) | 287 (LIGEFLEKV; listed as Homo sapiens) [compound 287]
47 | “+++” (≥50 = +++) | 288 (LLDDSLVSI; listed as Homo sapiens) [compound 288]
48 | “++++” (≥75% = ++++) | 290 (NLIDLDDLYV; listed as Homo sapiens) [compound 290]
49 | “+++” (≥50 = +++) | 291 (QLIDYERQL; listed as Homo sapiens) [compound 291]
50 | “++” (≥20% = ++) | 292 (RIPAYFVTV; listed as Homo sapiens) [compound 292]
51 | “++” (≥20% = ++) | 293 (FLASESLIKQI; listed as Homo sapiens) [compound 293]
52 | “++++” (≥75% = ++++) | 294 (RLIDLHTNV; listed as Homo sapiens) [compound 294]
53 | “+++” (≥50 = +++) | 295 (SLFSSPPEI; listed as Homo sapiens) [compound 295]
54 | “+++” (≥50 = +++) | 296 (SLLSGRISTL; listed as Homo sapiens) [compound 296]
55 | “+++” (≥50 = +++) | 297 (TLFYSLREV; listed as Homo sapiens) [compound 297]
56 | “++” (≥20% = ++) | 298 (TMAKESSIIGV; listed as Homo sapiens) [compound 298]
57 | “+++” (≥50 = +++) | 299 (ALLRVTPFI; listed as Homo sapiens) [compound 299]
58 | “++” (≥20% = ++) | 300 (TLAQQPTAV; listed as Homo sapiens) [compound 300]
59 | “++++” (≥75% = ++++) | 302 (KIQEILTQV; listed as Homo sapiens) [compound 302]
